Stoichiometry N (subunits (single ring)) data for one substance are collected here from article doi:10.1101/2021.02.24.432666.

The target in this test is yeast TRiC subunit CCT5 (yeast) (UniProt P40413). In words: cryo-EM structure.

For the substance “yeast TRiC subunit CCT5 (from UniProt P40413 1-562) (natural protein)”, the stoichiometry N (subunits (single ring)) was determined as 8.
